Assay results: publication PMC3438196
Where a chain is given by its changes, count along the chain named. Numbers in names are those of the source.

B1: Apobec3G-GFP MAPPIT bait (pCEL-Apobec3G-GFP), Q9HC16 R30L (protein)
chain: MKPHFRNTVERMYRDTFSYNFYNRPILSRLNTVWLCYEVKTKGPSRPPLDAKIFRGQVYSELKYHPEMRFFHWFSKWRKLHRDQEYEVTWYISWSPCTKCTRDMATFLAEDPKVTLTIFVARLYYFWDPDYQEALRSLCQKRDGPRATMKIMNYDEFQHCWSKFVYSQRELFEPWNNLPKYYILLHIMLGEILRHSMDPPTFTFNFNNEPWVRGRHETYLCYEVERMHNDTWVLLNQRRGFLCNQAPHKHGFLEGRHAELCFLDVIPFWKLDLDQDYRVTCFTSWSPCFSCAQEMAKFISKNKHVSLCIFTARIYDDQGRCQEGLRTLAEAGAKISIMTYSEFKHCWDTFVDHQGCPFQPWDGLDEHSQDLSGRLRAILQNQEN
B2: Apobec3G-GFP MAPPIT bait (pCEL-Apobec3G-GFP), Q9HC16 H81L (protein)
chain: B1 chain with L30R, H81L
B3: Apobec3G-GFP MAPPIT bait (pCEL-Apobec3G-GFP), Q9HC16 R102G (protein)
chain: B1 chain with L30R, R102G
B4: Apobec3G-GFP MAPPIT bait (pCEL-Apobec3G-GFP), Q9HC16 K79M (protein)
chain: B1 chain with L30R, K79M
B5: Apobec3G-GFP MAPPIT bait (pCEL-Apobec3G-GFP), Q9HC16 R78W (protein)
chain: B1 chain with L30R, R78W
B6: Apobec3G-GFP MAPPIT bait (pCEL-Apobec3G-GFP), Q9HC16 R122C (protein)
chain: B1 chain with L30R, R122C

Legend:
[1] = biological target: T1, codon optimized Vif SLQ144-146AAA MAPPIT prey (pMG2-VifoptSLQ), P12504; test: MAPPIT; conditions: chain shown with the change
[2] = biological target: T1, codon optimized Vif SLQ144-146AAA …; test: MAPPIT; conditions: chain shown with the change; remark: listed apart in the source

Row | Binder | percent of parent [1] | percent of parent [2]
1 | B1 | 21 % of WT | 21 % of WT
2 | B2 | – | 53 % of WT
3 | B3 | 44 % of WT | 44 % of WT
4 | B4 | – | 56 % of WT
5 | B5 | – | 16 % of WT
6 | B6 | 16 % of WT | –
